The values that follow come from patent US20130129719, “HER2 NUCLEIC ACID APTAMERS” (UNIVERSITY OF IOWA RESEARCH FOUNDATION, published 2013).

The target in series [1] is HER2 extracellular domain (HER2-ECD) (Rattus norvegicus, UniProt P06494 P06494:23-654). Description: FP; selection buffer, room temperature 30 min, protein up to 1 uM. As to conditions: label: 5'-FAM. How it is done:
(§1) FIG. 3. Binding of HER2-aptamers to recombinant HER2-ECD protein. RNA aptamers labeled with FAM at the 5′ end were incubated with recombinant rat HER2-ECD protein in increasing concentrations up to 1 μM at room temperature for 30 minutes in 100 μL reaction volumes. A non-target protein (glyoxylase) is used as a negative control in these assays (Control protein). The binding reaction is performed in the buffer in which the selection was performed. Fluorescence polarization (FP) values for each RNA concentration are read using an Analyst HT plate reader by LJL Biosystems. FP is given by P=(V−H)/(V+H), where V is the vertical component of polarized light, and H is the horizontal component of polarized light. Values of polarization range from 0 to 500 mP, with 0 mP being no binding of the RNA and 500 mP representing maximal binding. The curve is fit with a one-site binding model using non-linear regression software. This confirms the binding of the HER2 aptamers to […] HER2 using Fluorescence Polarization. […] This experiment was done several times and was reproducible.
(§2) The inventors next verified that several of the internalizing aptamers were binding specifically to HER2 using fluorescence polarization (FP). This was done by measuring binding of the RNAs to recombinant purified rat HER2-ECD (extra cellular domain) (FIG. 3). […] A control protein (human glyoxylase) was used as a negative control for binding in these studies.

The target in series [2] is T1, glyoxylase (negative control protein) (Homo sapiens, UniProt Q04760 Q04760:2-184).
T1 sequence: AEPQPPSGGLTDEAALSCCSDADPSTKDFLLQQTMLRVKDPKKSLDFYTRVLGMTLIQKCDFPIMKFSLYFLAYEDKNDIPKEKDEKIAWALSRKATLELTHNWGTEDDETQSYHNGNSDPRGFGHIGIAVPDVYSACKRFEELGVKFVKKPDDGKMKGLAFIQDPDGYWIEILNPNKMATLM
Description: FP; specificity control, room temperature. As to conditions: tags: His-tag; label: 5'-FAM. How it is done: as §1, §2

Chain of HER2 extracellular domain (HER2-ECD) (P06494 23-654, one chain of several): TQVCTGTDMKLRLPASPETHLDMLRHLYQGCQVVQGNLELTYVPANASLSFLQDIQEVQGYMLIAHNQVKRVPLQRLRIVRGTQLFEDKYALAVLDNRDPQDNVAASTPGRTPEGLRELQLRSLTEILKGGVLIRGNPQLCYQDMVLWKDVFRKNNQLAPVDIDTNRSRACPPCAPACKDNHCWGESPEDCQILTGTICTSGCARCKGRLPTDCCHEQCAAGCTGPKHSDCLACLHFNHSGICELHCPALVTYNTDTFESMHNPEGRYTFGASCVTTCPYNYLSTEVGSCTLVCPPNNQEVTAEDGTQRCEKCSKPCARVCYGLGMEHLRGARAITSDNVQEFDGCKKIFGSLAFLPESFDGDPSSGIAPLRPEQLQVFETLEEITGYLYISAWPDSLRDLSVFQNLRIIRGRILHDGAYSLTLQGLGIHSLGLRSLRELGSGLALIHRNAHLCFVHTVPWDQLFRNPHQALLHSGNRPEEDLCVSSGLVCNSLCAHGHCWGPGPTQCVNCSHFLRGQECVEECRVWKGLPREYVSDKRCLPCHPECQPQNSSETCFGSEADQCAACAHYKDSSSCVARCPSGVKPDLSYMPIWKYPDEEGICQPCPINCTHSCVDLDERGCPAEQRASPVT

B1: E1 (ssRNA)
RNA: GGGAGGACGAUGCGGUCCUGUCGUCUGUUCGUCCCCAGACGACUCGCCCGA
Turning to B1, the binding result in series [1] is “binds”; in series [2] it was “no binding”.

B2: D1 (ssRNA)
RNA: GGGAGGACGAUGCGGAUGUAUGUUGGGAGCCACGCCAGACGACUCGCCCGA
For B2, the binding result in series [1] is “binds”; in series [2], “no binding”.

B3: C1 (ssRNA)
RNA: GGGAGGACGAUGCGGCUGUCUACCUUCUACUGCCGCAGACGACUCGCCCGA
On to B3, for which the binding result in series [1] was “binds”; in series [2], “no binding”.

In the case of GGGAGGACGAUGCGGGACUGUAUGGGGCUCUGUGCAGACGACUCGCCCGA (ssRNA) [A2], the binding result in series [1] is “binds”; in series [2], “no binding”.

B4: B1 (ssRNA)
RNA: GGGAGGACGAUGCGGUCUGUUGUGCUUGAUAUGCCCCAGACGACUCGCCCGA
Consider B4, for which the binding result in series [1] is reported as “binds”; in series [2] it was “no binding”.
